Measured values reported in patent US20090298759A1 (published 2009).

What was measured:
FcγRI = biological target: T1, FcγRI; assay: surface plasmon resonance; FcγRI immobilized (1000 µRIU), CRP injected at 42, 84, 169 and 338 nM
T1 construct: also called FcgRI; CD64
Method: FcγRI (1000 μRIU) were immobilized CRP was injected @ 42 nM, 84 nM, 169 nM and 338 nM. Data are recorded as resonance units over time after injection.

[1] = biological target: T2, recombinant human FcγRI from R&D Systems (Cat#1257-FC-050) (human, UniProt P12314 16-292); assay: ELISA, recombinant human FcγRI
T2 construct: extracellular domain; Bought reagent; also called CD64
T2 sequence (P12314 16-292): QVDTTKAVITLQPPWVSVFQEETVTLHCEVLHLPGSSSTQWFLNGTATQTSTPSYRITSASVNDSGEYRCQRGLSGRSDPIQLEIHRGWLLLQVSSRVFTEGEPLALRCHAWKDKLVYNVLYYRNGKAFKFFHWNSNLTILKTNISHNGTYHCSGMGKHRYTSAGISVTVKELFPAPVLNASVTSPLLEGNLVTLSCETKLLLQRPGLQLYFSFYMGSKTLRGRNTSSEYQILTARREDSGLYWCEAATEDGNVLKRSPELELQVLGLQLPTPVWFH

T1 sequence (P12314 16-292): as above

Kd (FcγRI): 183 nM
binding result [1]: binds
B1: C-reactive protein (CRP) (ligand)
chain: QTDMSRKAFVFPKESDTSYVSLKAPLTKPLKAFTVCLHFYTELSSTRGYSIFSYATKRQDNEILIFWSKDIGYSFTVGGSEILFEVPEVTVAPVHICTSWESASGIVEFWVDGKPRVRKSLKKGYTVGAEASIILGQEQDSFGGNFEGSQSLVGDIGNVNMWDFVLSPDEINTIYLGGPFSPNVLNWRALKYEVQGEVFTKPQLWP
notes: also called human CRP
